According to PMC11847078:

Assays:
[1] = target: CD4-Nav1.6-CTD-NLuc (UniProt Q9UQD0); experiment: split reporter (BiFC, NanoBiT); in-cell split-luciferase complementation assay (LCA); HEK293 cells transiently cotransfected with CD4-Nav1.6-CTD-NLuc and CLuc-GSK3β or a mutant; D-luciferin, 37 °C; peak luminescence as percent of the per-plate control; in one set cells treated with vehicle (0.5% DMSO) or 2 μM CHIR99021 for 1 h before the read-out
[2] = target: GSK3β (UniProt P49841); experiment: split-luciferase complementation assay in HEK293; details: reference: vehicle (0.5% DMSO); sites T1936

Chain of UniProt Q9UQD0 (Q9UQD0 whole entry): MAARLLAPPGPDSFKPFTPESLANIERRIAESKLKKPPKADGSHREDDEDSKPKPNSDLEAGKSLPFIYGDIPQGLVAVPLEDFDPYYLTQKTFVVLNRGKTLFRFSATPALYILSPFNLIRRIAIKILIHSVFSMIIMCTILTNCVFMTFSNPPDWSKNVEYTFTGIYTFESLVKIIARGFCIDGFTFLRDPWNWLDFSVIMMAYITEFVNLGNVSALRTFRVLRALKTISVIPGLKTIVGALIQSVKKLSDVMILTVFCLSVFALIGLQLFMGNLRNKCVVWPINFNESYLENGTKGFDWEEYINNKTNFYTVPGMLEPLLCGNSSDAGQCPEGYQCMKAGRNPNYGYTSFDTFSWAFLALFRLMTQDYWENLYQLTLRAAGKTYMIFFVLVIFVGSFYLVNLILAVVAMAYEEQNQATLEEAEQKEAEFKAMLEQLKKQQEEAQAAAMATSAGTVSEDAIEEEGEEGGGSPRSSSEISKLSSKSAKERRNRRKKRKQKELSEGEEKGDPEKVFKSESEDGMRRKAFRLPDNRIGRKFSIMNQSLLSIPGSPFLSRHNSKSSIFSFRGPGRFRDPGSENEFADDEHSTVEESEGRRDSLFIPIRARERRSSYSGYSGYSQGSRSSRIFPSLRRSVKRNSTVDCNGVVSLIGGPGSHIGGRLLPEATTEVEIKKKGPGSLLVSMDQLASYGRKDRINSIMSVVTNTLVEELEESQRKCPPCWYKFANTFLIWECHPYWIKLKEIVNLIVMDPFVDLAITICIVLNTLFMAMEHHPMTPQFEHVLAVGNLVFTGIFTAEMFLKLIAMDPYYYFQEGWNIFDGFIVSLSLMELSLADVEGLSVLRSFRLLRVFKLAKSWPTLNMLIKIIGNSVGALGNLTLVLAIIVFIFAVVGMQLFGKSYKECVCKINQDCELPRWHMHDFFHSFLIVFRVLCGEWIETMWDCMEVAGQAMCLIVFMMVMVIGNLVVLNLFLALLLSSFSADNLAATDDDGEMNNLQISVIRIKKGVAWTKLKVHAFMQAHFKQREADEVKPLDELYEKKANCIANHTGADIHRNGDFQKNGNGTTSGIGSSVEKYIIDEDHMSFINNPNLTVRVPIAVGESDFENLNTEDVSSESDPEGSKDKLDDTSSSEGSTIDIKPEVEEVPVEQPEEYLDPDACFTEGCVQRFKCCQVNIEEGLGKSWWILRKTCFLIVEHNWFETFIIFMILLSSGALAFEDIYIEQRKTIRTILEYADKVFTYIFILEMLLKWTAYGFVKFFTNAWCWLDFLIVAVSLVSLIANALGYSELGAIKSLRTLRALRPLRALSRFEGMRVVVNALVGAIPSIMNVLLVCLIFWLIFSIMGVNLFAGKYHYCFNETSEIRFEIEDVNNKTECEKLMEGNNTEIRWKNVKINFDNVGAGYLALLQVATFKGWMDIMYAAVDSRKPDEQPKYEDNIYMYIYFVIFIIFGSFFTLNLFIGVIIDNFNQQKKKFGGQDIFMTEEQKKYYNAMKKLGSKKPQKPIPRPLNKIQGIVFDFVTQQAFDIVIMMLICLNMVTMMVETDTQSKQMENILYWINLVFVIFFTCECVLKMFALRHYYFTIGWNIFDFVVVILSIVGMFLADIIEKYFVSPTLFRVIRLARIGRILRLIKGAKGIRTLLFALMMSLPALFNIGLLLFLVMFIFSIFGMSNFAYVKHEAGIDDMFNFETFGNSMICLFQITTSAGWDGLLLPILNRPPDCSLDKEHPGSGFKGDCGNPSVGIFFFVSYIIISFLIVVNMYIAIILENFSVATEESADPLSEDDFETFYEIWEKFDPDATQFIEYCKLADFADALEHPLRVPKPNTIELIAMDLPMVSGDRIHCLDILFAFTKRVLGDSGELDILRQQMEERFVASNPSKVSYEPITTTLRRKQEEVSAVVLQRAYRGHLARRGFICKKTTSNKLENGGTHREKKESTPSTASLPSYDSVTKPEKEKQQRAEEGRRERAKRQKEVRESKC
Chain of CLuc-GSK3β (P49841 whole entry): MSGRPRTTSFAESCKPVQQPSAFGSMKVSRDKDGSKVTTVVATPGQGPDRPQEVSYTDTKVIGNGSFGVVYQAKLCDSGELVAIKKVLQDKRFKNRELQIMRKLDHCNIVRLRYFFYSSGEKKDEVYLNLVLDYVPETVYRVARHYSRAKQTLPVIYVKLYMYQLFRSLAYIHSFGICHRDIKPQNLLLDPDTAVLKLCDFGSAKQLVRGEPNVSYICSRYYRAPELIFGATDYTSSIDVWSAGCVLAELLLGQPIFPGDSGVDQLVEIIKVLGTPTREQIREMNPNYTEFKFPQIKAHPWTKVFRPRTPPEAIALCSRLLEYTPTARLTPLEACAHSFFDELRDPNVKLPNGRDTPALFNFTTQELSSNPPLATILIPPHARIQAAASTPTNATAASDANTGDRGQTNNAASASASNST

“CLuc-GSK3β (from UniProt P49841 1-420) (enzyme)” was tested. Which % Lum with 2 μM CHIR99021 (relative to Nav1.6:GSK3β + DMSO) [1] did it give?
The % Lum with 2 μM CHIR99021 (relative to Nav1.6:GSK3β + DMSO) was 91.2 % Lum.

And the % Lum with vehicle (0.5% DMSO; the control to which the set is normalised) [1]?
Its % Lum with vehicle (0.5% DMSO; the control to which the set is normalised) is 100 % Lum.

Which results are given for “CLuc-GSK3βΔABD (from UniProt P49841 1-420) (enzyme)”?
% Lum (luminescence relative to Nav1.6:GSK3β control) [1]: 42 % Lum; % Lum with 2 μM CHIR99021 (relative to Nav1.6:GSK3β + DMSO) [1]: 58.2 % Lum; % Lum with vehicle (0.5% DMSO) (relative to Nav1.6:GSK3β + DMSO) [1]: 60.9 % Lum

How did the % Lum (luminescence relative to Nav1.6:GSK3β control) [1] turn out when “CLuc-GSK3βΔCTD (from UniProt P49841 1-343) (domain or fragment)” was run?
The % Lum (luminescence relative to Nav1.6:GSK3β control) was 167 % Lum.

For “Nav1.6 C-terminal domain (CTD) 2 μM CHIR99021, 1 h”, which “other: % luminescence of WT GSK3β + DMSO control” value [2] is on record?
The value was “same; reference 60.9 ± 3.3”.

And the percent of reference [2]?
Its percent of reference is “same; reference 100.0 ± 4.4”.
